Experimental data as given in the DeepSol protein solubility set.

Assay: soluble on expression in E. coli; label from the status in PepcDB or PDB records
For “MSLNKPLADRMRPIKLEDVVGQEHILSKNQILNKTLQAGHITNMIFYGPPGVGKTTVANIISNMTNKKLYKLNATNASIKDIQRIVAELDSFMTMNGVLLYLDEIQNFNKKQQQSLLEYIENGKITLIASTTENPYHYIYNAILSRSTVFEFKLLTKSNVIEGLKQVIKRINDEGKTLVEYEEEALDYIATASNGDLRRAMNALELAMYAAESENKEQVFLTIHIAQESTQKKVISYDKFGDQHYDILSAFQKSIRGTDPDAAIHYLARLVKAGDLNSICRRLLVIASEDIGLAYPTAITIVKSCVDAAMQVGFPEARINLAQATLVLATAPKSNSVIEAMDRALADLDQKDIGEIPTSLKDAHYKGASDLGRGVTYKYPHHYENNYIQQQYLPENIKNEKYYGSQNNKMEQRIFSYLEQLKKEGHHHHHH”, the “soluble on expression in E. coli” value was “not soluble”.
With “MGSDKIHHHHHHMADNETIPSCANCSAVWQKSGTTNCWSSPDNRPGQPANCPSKTSPDIIDESFAEYRGDGDDARLARVAARVEGLCYQKMQGSDAVVARWTRVEDTVALAKLMGWTKVGIATCIGLLEETKQLVTILEAQGLEPASVCCKSGSIDKLELGLEESDKVRPGTFEPACNPIAQAEILNRCGTQMNIIVGLCVGHDMLFTKHSKAPVTTLVCKDRVTGHNPAAVLYGQNFYYKRLKVQPVAVPTEEK” the “soluble on expression in E. coli” value was “not soluble”.
For “MLPFAPQDEPWDREMEVFSGGGASSGEVNGLKMVDEPMEEGEADSCHDEGVVKEIPITHHVKEGYEKADPAQFELLKVLGQGSFGKVFLVRKKTGPDAGQLYAMKVLKKASLKVRDRVRTKMERDILVEVNHPFIVKLHYAFQTEGKLYLILDFLRGGDVFTRLSKEVLFTEEDVKFYLAELALALDHLHQLGIVYRDLKPENILLDEIGHIKLTDFGLSKESVDQEKKAYSFCGTVEYMAPEVVNRRGHSQSADWWSYGVLMFEMLTGTLPFQGKDRNETMNMILKAKLGMPQFLSAEAQSLLRMLFKRNPANRLGSEGVEEIKRHLFFANIDWDKLYKREVQPPFKPASGKPDDTFCFDPEFTAKTPKDSPGLPASANAHQLFKGFSFVATSIAEEYKITPITSANVLPIVQINGNAAQFGEVYELKEDIGVGSYSVCKRCIHATTNMEFAVKIIDKSKRDPSEEIEILMRYGQHPNIITLKDVFDDGRYVYLVTDLMKGGELLDRILKQKCFSEREASDILYVISKTVDYLHCQGVVHRDLKPSNILYMDESASADSIRICDFGFAKQLRGENGLLLTPCYTANFVAPEVLMQQGYDAACDIWSLGVLFYTMLAGYTPFANGPNDTPEEILLRIGNGKFSLSGGNWDNISDGAKDLLSHMLHMDPHQRYTAEQILKHSWITHRDQLPNDQPKRNDVSHVVKGAMVATYSALTHKTFQPVLEPVAASSLAQRRSMKKRTSTGL”, the “soluble on expression in E. coli” value was “soluble”.
In the case of “MIVCMSVSLLRSYAVRRALGALVVAGFLGAGVTGCSNDAGAKTENTVDGSPTPVSTPTDGEGDGAGEPVEETPAEPEQRPTPVEPEAMKTGDKAGAIAAAQYFVEVIEYSMHTSTTDLLEKYSYEHCDRCAHFVEVINTRQEKNVLPKSVVINSSQEGHPEFRGEGAIIWRVPMRLQISEQWETGKEPRKEDVKVSISVANENGRWVLVGIVAED”, the “soluble on expression in E. coli” value is reported as “not soluble”.
In the case of “MKKIDSAVAVEPAATVPKGRKNNPEKTREDILKAAVAEFVAHGLTGARVDAIAERTKTSKRMIYYYFGSKEQLYVEVLEKLYGAIRNTESELNLGELEPVEAIHRVVEFTFDHHDSNVDFVRIVCIENIHNGENVKQSDTIQAKSQNIIRALDGILRRGEASGLFRDGVHPVDLHLMISSFCFYRISNRHTFSEIFQIELWSEEVKQRHKAMICDAVLRYLKR”, the “soluble on expression in E. coli” value is reported as “not soluble”.
For “MAHHHHHHMSGAGRKHRAKHLTQQYLDASGWVGPKEGERLAICMESPHGQHVRVLLLVHPNSAPASSSTEAPAPDGSSSSDAPHGAKESEAGVSASPPSAAPLLEVEQVVHLPRKFHKVIWLSIKDVVVIADGTVSFKPSPEQVESFLKDPRNKGWRERVATAQHRAEDQRAALQRMPHYAATAQTTTSVLTGPQVRSGVRATANGTSEQDSEGSEGEADDMRNPNWRNIKHQQHFFYGLGDDSDEIEEEEDA”, the “soluble on expression in E. coli” value was “not soluble”.
With “MATQLLMPKATAVWLVDNTALTFDQIAEFCKLHVLEVKAIADGEAAYGIKGLDPISSGQLTRSEIARVEADKNARLKISQSKVHIPEKKRKGARYIPLSRRQDRPNGILWLVTNHPELKDAQIARLIGTTKGTIEQIRNRTHWNSANLVALDPVGLGLCLQIDLDIELKRAAKNRPLSNEEDKSLLPASVTENVAIHEKEHEQDFNKNFDADKVFAKLNALQKNRENDASTELEHHHHHH” the “soluble on expression in E. coli” value was “soluble”.
For “MGSDKIHHHHHHMNVEKLKKMKGKEKIVMVTAYDAPSARIARDAGIDVILVGDSLGNNVLGYENTIPVTMEEMLIHVAAVKRGAPDAFIVADMPFLSYQTSVEKAVENAGKFLKVGANAVKIEGGEEFGELVQKLVESGIPVMGHIGLTPQFVNRFGGYRVQGKTEKNREYLLRSARELEKRGAFAIVLELVVEEVAKEITESVSIPTIGIGSGRFCDGQVLVWHDLLGLNPDFAPRFSKKYANLYEVILKALQEFRREVKKGLFPTEEHSFTDKSKGGVSS”, the “soluble on expression in E. coli” value was “not soluble”.
For “MGSDKIHHHHHHASSCGDECPVEQPYSVRVSVKDKNYLNISQFPQLSQVDENLPFRTYAGTLYYALYDASTGALIRESAVVSTEGEEKEYTLTFPGVPDGDYKLAVWGNLTTDYPAGILHQDGKEHTDIYVTSGDLHFSPDYQTEELTLERTKGKLLLLCSNFPSEITRIEQNVSHVYQSTDAGLNYSGSTQVDKNVPFTSVLETLLAPTSAEGHSKLTLTFYTGGTRASETPYLKLPVMEMDMRRNEITAVSIDYNTSEGIWEIKMFIRGEWITIHRLDIF”, the “soluble on expression in E. coli” value was “not soluble”.
With “MRLLLAAPHSGAGKTTVSLALLLALRARGLRVQPFKVGPDYIDPTHLEKAAARRPYNLDGFFLDETGLLALFRHGARGADFALIEGVMGLFDGKDPRGEVGSTAQVARLLKAPVALVVDAKGMAGSIAPLALGFRDFHPGVRVVGVFANRVGSERHAEILKEALKAVGLPLLGWLPQDPALELPERHLGLVLAGEVAPPLEALRRAFRVDLEGVLRLAASAPPLPEARPFLPPRRPPRARVAYAWDKAFSFYYPEALELLEALGAELVPFSPLEDEALPKAHALLLGGGYPELFAERLSANVALREAIRRFPGPIVAECGGYMYLSQGLWVGERFFPMVGLVPGEARMAERPVLGYREVEALRDSPVARKGQAFKGHEFHYARLPASPSPAWRRLGGEEVEGYTDGRVLASFVHLYLPARPEGVERLLGLASRGKAAGASLEHHHHHH” the “soluble on expression in E. coli” value was “not soluble”.
With “MIEFTALDDLSLLRESVSLECKLAQGRDGKGALPDDFWPTYSAMANTDGGIVILGVRERKGQFEVAGIENPDKLRTELFNHLNNRQKVSVNLLRDEDVRAWPVEGKTLLVVEIPRARRQQRPVYLRGNPLGGHTYRRLHEGDRPLPDEDVKRMLAEQVEDSRDERILPGYGLDDLHLESLRAYRQLFANRDPSHPWNALADQAFLRQIGGWRQHRETGEAGLTLAGLLMFGQWSSITEAVPLCFLDYQERPADYATTVQWLDRIVPDGTWSGNVFDFYRRVVGKLTADIKVPFVLKGDIRQDDTPTHKALREALVNTLVHADYTGRISVLVVKEPAGFVLRNPGGLRVPAQQALQGGMSDCRNRTMQQMFLMIGLGERAGSGMSRIVHGWRDLGHELHLRESYEPHEHSVLEMFWAKGRGATLASESSEESSEESSEETGKKILHLLREEPSLTASALARRLQLTPRAIEKQLAKLKAQKRLRRIGPNKGGHWEVGELEHHHHHH” the “soluble on expression in E. coli” value was “soluble”.
In the case of “MGSDKIHHHHHHMDEVSVWRRAWTYVVTTLAQSLPNRCLLCHQTVIEGSGVCSLCLQRCLYHGPVCLGCGRSLVNDGAFCGACRVLGALPVIAPCSYHQGLGASIAAIKYQGQFAALDVLCRALMARVTQLTEEGEIPPVSLLLPVPLHPKRLKTRGFNQAYEIALLLSKLSGIPLCDDLLRRRRDTQPQAGLTGKARRKNLLGAFELTGSCHQGSVALVDDVVTTGSTANEIATMLQLQGVRVQVWCLARAEAPGLLDTFS”, the “soluble on expression in E. coli” value is reported as “not soluble”.
In the case of “MGSDKIHHHHHHMQVPKVTLNNGVEMPILGYGVFQIPPEKTEECVYEAIKVGYRLIDTAASYMNEEGVGRAIKRAIDEGIVRREELFVTTKLWVSDVGYESTKKAFEKSLKKLQLEYIDLYLIHQPFGDVHCAWKAMEEMYKDGLVRAIGVSNFYPDRLMDLMVHHEIVPAVNQIEIHPFYQRQEEIEFMRNYNIQPEAWGPFAEGRKNIFQNGVLRSIAEKYGKTVAQVILRWLTQKGIVAIPKTVRRERMKENISIFDFELTQEDMEKIATLDEGQSAFFSHRDPEVVKWICSLKR”, the “soluble on expression in E. coli” value is reported as “soluble”.
